Measured values from paper PMC3800186.

Molecular target: HIV-1 YU2 gp120 S375A mutant (HIV-1 YU2)
Test: SPR

KR21 biotinylated peptide triazole
IC50: 1.28 µM
